Data taken from the Immune Epitope Database (IEDB).

Assays:
HLA-A*11:01 [1] = test: IEDB peptide-MHC binding, purified MHC/competitive/fluorescence; ≥ and ≤ were set here for values at or beyond the usual limits of such assays
HLA-B*15:03 = test: IEDB peptide-MHC binding, purified MHC/competitive/radioactivity; filed as Kd, often an IC50 or EC50 that approximates it; ≥ and ≤ were set here for values at or beyond the usual limits of such assays; settings: source organism: Vaccinia virus WR
HLA-B*58:01 [2] = test: as above
HLA-B*46:01 [3] = test: IEDB peptide-MHC binding, purified MHC/competitive/fluorescence; filed as Kd, often an IC50 or EC50 that approximates it; ≥ and ≤ were set here for values at or beyond the usual limits of such assays; settings: source organism: Clostridium botulinum B str. Eklund 17B (NRP)
HLA-B*08:01 = test: IEDB peptide-MHC binding, purified MHC/competitive/radioactivity; filed as Kd, often an IC50 or EC50 that approximates it; ≥ and ≤ were set here for values at or beyond the usual limits of such assays; settings: source organism: Vaccinia virus WR
HLA-A*02:01 [4] = test: IEDB peptide-MHC binding, purified MHC/competitive/fluorescence; filed as Kd, often an IC50 or EC50 that approximates it; ≥ and ≤ were set here for values at or beyond the usual limits of such assays; settings: source organism: Shigella boydii CDC 3083-94
HLA-B*15:01 [5] = test: as above; settings: source organism: Shigella boydii CDC 3083-94
HLA-B*53:01 = test: IEDB peptide-MHC binding, purified MHC/competitive/radioactivity; filed as Kd, often an IC50 or EC50 that approximates it; ≥ and ≤ were set here for values at or beyond the usual limits of such assays; settings: source organism: Dengue virus 1 Brazil/97-11/1997
HLA-A*02:01 [6] = test: IEDB peptide-MHC binding, purified MHC/competitive/fluorescence; ≥ and ≤ were set here for values at or beyond the usual limits of such assays; settings: source organism: Vaccinia virus WR
HLA-A*24:02 = test: as above; settings: source organism: Vaccinia virus WR
HLA-B*15:01 [7] = test: IEDB peptide-MHC binding, purified MHC/competitive/radioactivity; filed as Kd, often an IC50 or EC50 that approximates it; ≥ and ≤ were set here for values at or beyond the usual limits of such assays
HLA-A*03:01 [8] = test: IEDB peptide-MHC binding, purified MHC/competitive/fluorescence; filed as Kd, often an IC50 or EC50 that approximates it; ≥ and ≤ were set here for values at or beyond the usual limits of such assays; settings: source organism: Escherichia coli 101-1
HLA-A*31:01 = test: as above; settings: source organism: Escherichia coli 101-1
HLA-B*15:17 = test: IEDB peptide-MHC binding, purified MHC/direct/fluorescence; filed as Kd, often an IC50 or EC50 that approximates it; ≥ and ≤ were set here for values at or beyond the usual limits of such assays
HLA-B*57:01 = test: as above
HLA-B*58:01 [9] = test: as above
HLA-A*01:01 = test: as above; settings: source organism: West Nile virus
HLA-A*03:01 [10] = test: as above; settings: source organism: West Nile virus
HLA-A*11:01 [11] = test: as above; settings: source organism: West Nile virus
HLA-A*29:02 = test: as above; settings: source organism: West Nile virus
HLA-A*69:01 = test: as above; settings: source organism: West Nile virus
HLA-B*18:01 = test: as above; settings: source organism: West Nile virus
HLA-B*27:05 = test: as above; settings: source organism: West Nile virus
HLA-B*40:01 = test: as above; settings: source organism: West Nile virus
HLA-B*44:02 = test: as above; settings: source organism: West Nile virus
HLA-B*46:01 [12] = test: as above; settings: source organism: West Nile virus
HLA-B*48:01 = test: as above; settings: source organism: West Nile virus
HLA-A*30:01 = test: IEDB peptide-MHC binding, purified MHC/competitive/radioactivity; filed as Kd, often an IC50 or EC50 that approximates it; ≥ and ≤ were set here for values at or beyond the usual limits of such assays; settings: source organism: Vaccinia virus WR
HLA-A*32:01 = test: as above; settings: source organism: Vaccinia virus WR
[13] = source organism: Vaccinia virus WR
[14] = source organism: West Nile virus
[15] = source organism: Lake Victoria marburgvirus - Popp
[16] = source organism: Vibrio cholerae

## AADEPPLVR
HLA-A*11:01 [1]; source organism: Vaccinia virus
  IC50: ≥ 142000 nM

## AANCFGQHV
HLA-B*15:03
  Kd: 21.8 nM

## ASAIVLEFF
HLA-B*58:01 [2]; source organism: Dengue virus 3 Martinique/1243/1999
  Kd: 28.2 nM

## AVVRFRTHF
HLA-B*15:03
  Kd: 191 nM

## ENKKNLSEQ
HLA-A*11:01 [1]; source organism: Sudan ebolavirus
  IC50: ≥ 75400 nM

## FFKDGMAEV
HLA-B*46:01 [3]
  Kd: 398 nM

## FKVLDGSPI
HLA-B*15:03
  Kd: 0.822 nM

## FMASPENVI
HLA-B*15:03
  Kd: 6.38 nM

## FQSMHFTDM
HLA-B*08:01
  Kd: 84.4 nM
HLA-B*15:03
  Kd: 5.12 nM

## FTFEWNGRI
HLA-A*02:01 [4]
  Kd: 14.5 nM
HLA-B*15:01 [5]
  Kd: ≥ 20000 nM

## FVTNEVHTW
HLA-B*53:01
  Kd: 61.2 nM
HLA-B*58:01 [2]; source organism: Dengue virus 1 Brazil/97-11/1997
  Kd: 29.9 nM

## FYTRVLKPS
HLA-A*02:01 [6]
  IC50: ≥ 110000 nM
HLA-A*11:01 [1]; [13]
  IC50: ≥ 179000 nM
HLA-A*24:02
  IC50: 7110 nM

## GLYCYFTHL
HLA-B*15:01 [7]; [13]
  Kd: 6.87 nM

## GTSGSPIVDK
HLA-A*11:01 [1]; [14]
  IC50: 212 nM

## GVFYRPLHF
HLA-B*15:01 [7]; [13]
  Kd: 5.54 nM

## HTFTAPIAK
HLA-A*03:01 [8]
  Kd: 112 nM
HLA-A*31:01
  Kd: 19.1 nM

## IISSSTLYF
HLA-B*15:01 [7]; source organism: Vaccinia virus Copenhagen
  Kd: 1.06 nM

## ISTKLSCHY
HLA-B*15:01 [7]; [13]
  Kd: 17.5 nM

## ITDITSPLW
HLA-B*15:17; [15]
  Kd: ≤ 1 nM
HLA-B*57:01; [15]
  Kd: 64.5 nM
HLA-B*58:01 [9]; [15]
  Kd: 3 nM

## KIRNRIERL
HLA-A*01:01
  Kd: ≥ 20000 nM
HLA-A*03:01 [10]
  Kd: ≥ 20000 nM
HLA-A*11:01 [11]
  Kd: ≥ 20000 nM
HLA-A*29:02
  Kd: ≥ 20000 nM
HLA-A*69:01
  Kd: ≥ 20000 nM
HLA-B*18:01
  Kd: ≥ 20000 nM
HLA-B*27:05
  Kd: ≥ 20000 nM
HLA-B*40:01
  Kd: ≥ 20000 nM
HLA-B*44:02
  Kd: ≥ 20000 nM
HLA-B*46:01 [12]
  Kd: ≥ 20000 nM
HLA-B*48:01
  Kd: ≥ 20000 nM
HLA-B*57:01; [14]
  Kd: ≥ 20000 nM

## KMTRVFNKF
HLA-A*30:01
  Kd: 15100 nM
HLA-A*32:01
  Kd: 10600 nM
HLA-B*08:01
  Kd: 10600 nM
HLA-B*15:01 [7]; [13]
  Kd: 7560 nM
HLA-B*15:03
  Kd: 0.431 nM

## KMYACKNDM
HLA-B*15:03
  Kd: 42.9 nM

## LIRPKILSM
HLA-B*08:01
  Kd: 0.548 nM
HLA-B*15:01 [7]; [13]
  Kd: 10.4 nM

## LLCKLSCAV
HLA-B*15:01 [7]; [13]
  Kd: 416 nM

## LLKICIKYF
HLA-B*15:01 [7]; [13]
  Kd: 5230 nM

## LLSRFFNMI
HLA-A*32:01
  Kd: 714 nM
HLA-B*08:01
  Kd: 1640 nM
HLA-B*15:03
  Kd: 821 nM

## LMVSGPNVV
HLA-B*15:03
  Kd: 3.8 nM

## MKYCSYQSF
HLA-B*15:03
  Kd: 1.55 nM

## QMEQWGCPW
HLA-B*15:17; [16]
  Kd: 147 nM
HLA-B*57:01; [16]
  Kd: 5430 nM
HLA-B*58:01 [9]; [16]
  Kd: 1060 nM
